Data: patent publication US20180120302A1

Columns and labels:
T4L-L99A-A130S [1] = molecular target: T4L-L99A-A130S (UniProt P00720); assay: BSI, global analysis of kinetic traces
T4L-D70N [2] = molecular target: T4L-D70N (UniProt P00720); assay: BSI corrected steady-state data, 25° C., pH 8.0
T4L-L99A [3] = molecular target: T4L-L99A (UniProt P00720); assay: ITC, KD2 (low affinity mode), T = 37° C. and pH = 7.2
T4L-L99A [4] = molecular target: T4L-L99A (UniProt P00720); assay: ITC, KD1 (high affinity mode), T = 37° C. and pH = 7.2
T4L-D70N [5] = molecular target: T4L-D70N (UniProt P00720); assay: BSI, global analysis, KD2 (low affinity mode), 25° C., pH 8.0
T4L-L99A-A130S [6] = molecular target: T4L-L99A-A130S (UniProt P00720); assay: as above
T4L-D70N [7] = molecular target: T4L-D70N (UniProt P00720); assay: BSI, global analysis, kf2 (low affinity mode), 25° C., pH 8.0
T4L-L99A-A130S [8] = molecular target: T4L-L99A-A130S (UniProt P00720); assay: as above
T4L-L99A [9] = molecular target: T4L-L99A (UniProt P00720); assay: Fluorescence, KD2 (low affinity mode), T = 37° C. and pH = 7.2
T4L-D70N [10] = molecular target: T4L-D70N (UniProt P00720); assay: BSI, global analysis, KD1 (high affinity mode), 25° C., pH 8.0
T4L-L99A-A130S [11] = molecular target: T4L-L99A-A130S (UniProt P00720); assay: as above
T4L-D70N [12] = molecular target: T4L-D70N (UniProt P00720); assay: BSI, global analysis, kf1 (high affinity mode), 25° C., pH 8.0
T4L-L99A-A130S [13] = molecular target: T4L-L99A-A130S (UniProt P00720); assay: as above
T4L-D70N [14] = molecular target: T4L-D70N (UniProt P00720); assay: BSI, global analysis, kr1 (high affinity mode), 25° C., pH 8.0
T4L-L99A-A130S [15] = molecular target: T4L-L99A-A130S (UniProt P00720); assay: as above
T4L-L99A [16] = molecular target: T4L-L99A (UniProt P00720); assay: Fluorescence, KD1 (high affinity mode), T = 37° C. and pH = 7.2
T4L-L99A [17] = molecular target: T4L-L99A (UniProt P00720); assay: BSI steady-state, KD2 (low affinity mode), T = 37° C. and pH = 7.2
T4L-L99A [18] = molecular target: T4L-L99A (UniProt P00720); assay: BSI steady-state, KD1 (high affinity mode), T = 37° C. and pH = 7.2
T4L-D70N [19] = molecular target: T4L-D70N (UniProt P00720); assay: BSI, global analysis, row printed kr1 but read as kr2 (low affinity mode), 25° C., pH 8.0
T4L-L99A-A130S [20] = molecular target: T4L-L99A-A130S (UniProt P00720); assay: as above

Sequence of αB-D3 (αB-crystallin with serine residues 19, 45 and 59 mutated to aspartic acids) (P02511 other isoform, or with tags, fused parts or gaps limits assumed, change not shown): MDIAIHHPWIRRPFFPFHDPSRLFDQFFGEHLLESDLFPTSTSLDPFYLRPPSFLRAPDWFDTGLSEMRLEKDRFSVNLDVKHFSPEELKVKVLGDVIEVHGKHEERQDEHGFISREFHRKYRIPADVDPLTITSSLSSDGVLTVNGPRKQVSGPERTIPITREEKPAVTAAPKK

fold increase of affinity in the high affinity mode relative to D70N (T4L-L99A-A130S [1]): 4 fold | reduction in the magnitude of the BSI signal relative to L99A/A130S (T4L-D70N [2]): 40% | Kd (T4L-L99A [3]): 2.44 µM | Kd (T4L-L99A [4]): 0.015 µM | Kd (T4L-D70N [5]): 29.1 µM | Kd (T4L-L99A-A130S [6]): 33 µM | kon (T4L-D70N [7]): 2340 M⁻¹ s⁻¹ | kon (T4L-L99A-A130S [8]): 2970 M⁻¹ s⁻¹ | Kd (T4L-L99A [9]): 1 µM | Kd (T4L-D70N [10]): 0.595 µM | Kd (T4L-L99A-A130S [11]): 0.132 µM | kon (T4L-D70N [12]): 25500 M⁻¹ s⁻¹ | kon (T4L-L99A-A130S [13]): 58500 M⁻¹ s⁻¹ | koff (T4L-D70N [14]): 0.0152 s⁻¹ | koff (T4L-L99A-A130S [15]): 5.03e-06 s⁻¹ | Kd (T4L-L99A [16]): 0.02 µM | Kd (T4L-L99A [17]): 3.11 µM | Kd (T4L-L99A [18]): 0.001 µM | koff (T4L-D70N [19]): 0.0682 s⁻¹ | koff (T4L-L99A-A130S [20]): 0.115 s⁻¹
Substance: αB-D3 (αB-crystallin with serine residues 19, 45 and 59 mutated to aspartic acids) (from UniProt P02511 1-175)
